Data on one molecule can be found in publication PMC8807537 (Acta Naturae, 2021).

The target of the test is T1, recombinant protein GP Zaire ebolavirus (H. sapiens-wt/GIN/2014/Kissidougou-C15 strain) (Zaire ebolavirus, …, UniProt X5HMX4, strain).
T1 construct: also called EBOV GP; recombinant EBOV GP
Briefly: ELISA; indirect ELISA; […] (1 ug/ml) […]. As to conditions: both partners purified. For orientation: In an ELISA, binding on a coated surface is turned into a signal by an enzyme label.

B1: control antibody MAb114 (antibody, V domains shown)
VH: EVQLVESGGGLIQPGGSLRLSCAASGFALRMYDMHWVRQTIDKRLEWVSAVGPSGDTYYADSVKGRFAVSRENAKNSLSLQMNSLTAGDTAIYYCVRSDRGVAGLFDSWGQGILVTVSS
VL: DIQMTQSPSSLSASVGDRITITCRASQAFDNYVAWYQQRPGKVPKLLISAASALHAGVPSRFSGSGSGTHFTLTISSLQPEDVATYYCQNYNSAPLTFGGGTKVEIK
Consider B1, for which the binding result was “binds”.
